In publication PMC2275666 (The EMBO Journal, 2008):
Positions count from the first letter of the chain named.

How the values were obtained:
Assay in all cases: pull-down
[1] = biological target: T1, 6H–hTFIIEα wild type (full-length hTFIIEα) (human, UniProt P29083 1-439)
T1 sequence: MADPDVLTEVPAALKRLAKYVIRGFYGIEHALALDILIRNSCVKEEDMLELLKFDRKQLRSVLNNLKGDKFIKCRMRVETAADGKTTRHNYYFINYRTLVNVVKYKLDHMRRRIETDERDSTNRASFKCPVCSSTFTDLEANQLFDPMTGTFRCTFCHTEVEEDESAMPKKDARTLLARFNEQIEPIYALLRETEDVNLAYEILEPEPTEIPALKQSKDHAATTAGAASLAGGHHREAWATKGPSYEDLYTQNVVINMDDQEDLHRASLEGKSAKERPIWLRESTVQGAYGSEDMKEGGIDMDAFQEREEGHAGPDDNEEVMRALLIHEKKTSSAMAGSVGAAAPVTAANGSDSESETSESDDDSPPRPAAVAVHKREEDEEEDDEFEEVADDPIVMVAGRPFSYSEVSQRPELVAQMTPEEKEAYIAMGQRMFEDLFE

[2] = biological target: T2, 6H–hTFIIEα F387A (human, UniProt P29083 1-439, F387A)
T2 sequence: T1 sequence with F387A

[3] = biological target: T3, 6H–hTFIIEα F387E (human, UniProt P29083 1-439, F387E)
T3 sequence: T1 sequence with F387E

[4] = biological target: T4, 6H–hTFIIEα D380A (human, UniProt P29083 1-439, D380A)
T4 sequence: T1 sequence with D380A

[5] = biological target: T5, 6H–hTFIIEα V390A (human, UniProt P29083 1-439, V390A)
T5 sequence: T1 sequence with V390A

Measured: binding result

B1: GST-tagged hTFIIEβ (natural protein)
chain: MDPSLLRERELFKKRALSTPVVEKRSASSESSSSSSKKKKTKVEHGGSSGSKQNSDHSNGSFNLKALSGSSGYKFGVLAKIVNYMKTRHQRGDTHPLTLDEILDETQHLDIGLKQKQWLMTEALVNNPKIEVIDGKYAFKPKYNVRDKKALLRLLDQHDQRGLGGILLEDIEEALPNSQKAVKALGDQILFVNRPDKKKILFFNDKSCQFSVDEEFQKLWRSVTVDSMDEEKIEEYLKRQGISSMQESGPKKVAPIQRRKKPASQKKRRFKTHNEHLAGVLKDYSDITSSK
binds: [1] | [2] | [3] | [4] | [5]
